Legend:
human CCR8 (human) [1] = target: human CCR8 (human) (UniProt P51685); assay: flow cytometry on lymphocytes from ascitic ovarian cancer, 1 µg mAb
human CCR8 (human) [2] = target: human CCR8 (human) (UniProt P51685); assay: flow cytometry on lymphocytes from ascitic ovarian cancer, 0.5 µg mAb
human CCR8 (human) [3] = target: human CCR8 (human) (UniProt P51685); assay: flow cytometry on lymphocytes from ascitic ovarian cancer, 0.1 µg mAb
human CCR8 (human) [4] = target: human CCR8 (human) (UniProt P51685); assay: flow cytometry, hCCR8 transfected CHOK1 cells

| Substance | Positive cells (human CCR8 (human) [1]) [%] | Positive cells (human CCR8 (human) [2]) [%] | Positive cells (human CCR8 (human) [3]) [%] | % positive cells (human CCR8 (human) [4]) [%] | MFI fold change to isotype ctrl (human CCR8 (human) [4]) [fold] |
| --- | --- | --- | --- | --- | --- |
| Isotype ctrl (antibody) | 5.06 | 3.81 | 2.94 |  |  |
| L263G8 (antibody) | 8.64 |  | 9.5 | 86.5 | 19.8 |

From patent US20260234276A1
